Experimental findings from article PMC4041364 are described below.

In data set [1] the target is T1, Granzyme A (GzmA) (human, UniProt P12544 29-262).
T1 sequence: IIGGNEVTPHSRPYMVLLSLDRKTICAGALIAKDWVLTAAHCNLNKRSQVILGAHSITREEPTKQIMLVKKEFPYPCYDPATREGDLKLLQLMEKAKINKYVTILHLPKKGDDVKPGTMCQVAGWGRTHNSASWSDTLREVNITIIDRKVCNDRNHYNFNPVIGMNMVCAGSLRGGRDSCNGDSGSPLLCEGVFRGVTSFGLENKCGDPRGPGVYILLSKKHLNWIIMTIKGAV
Briefly: fluorescence polarization. Background: Polarisation of emitted light reports the rotation of a fluorescent probe.

Data set [2] concerns the target T2, Granzyme B (GzmB) (human, UniProt P10144 21-247). In words: fluorescence polarization.
Data set [3] deals with HuR (human antigen R) (UniProt Q15717 1-326). In words: fluorescence polarization.
The target of data set [4] is T1, Granzyme A (GzmA). Briefly: pull-down.
Data set [5] has as its target T2, Granzyme B (GzmB). In words: pull-down.
Data set [6] deals with T3, Cathepsin G (CATG) (human, UniProt P08311 21-244).
T3 sequence: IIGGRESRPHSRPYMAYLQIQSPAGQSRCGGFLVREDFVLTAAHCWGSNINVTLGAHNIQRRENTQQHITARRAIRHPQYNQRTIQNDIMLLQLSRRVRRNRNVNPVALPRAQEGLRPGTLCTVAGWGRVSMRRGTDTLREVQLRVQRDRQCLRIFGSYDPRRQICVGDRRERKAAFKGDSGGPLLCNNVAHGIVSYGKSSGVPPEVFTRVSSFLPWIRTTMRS
In words: pull-down.

Data set [7] addresses Pancreatic elastase (PE) (porcine, UniProt P00772 27-266). Briefly: pull-down.
Data set [8] addresses T4, Neutrophil elastase (NE) (human, UniProt P08246 30-267). In words: pull-down.
The target in data set [9] is T3, Cathepsin G (CATG). Briefly: fluorescence polarization.
The target in data set [10] is Histone H1 (UniProt P07305 1-194). In words: fluorescence polarization.
The target in data set [11] is T4, Neutrophil elastase (NE). In words: fluorescence polarization.

T2 sequence (P10144 21-247): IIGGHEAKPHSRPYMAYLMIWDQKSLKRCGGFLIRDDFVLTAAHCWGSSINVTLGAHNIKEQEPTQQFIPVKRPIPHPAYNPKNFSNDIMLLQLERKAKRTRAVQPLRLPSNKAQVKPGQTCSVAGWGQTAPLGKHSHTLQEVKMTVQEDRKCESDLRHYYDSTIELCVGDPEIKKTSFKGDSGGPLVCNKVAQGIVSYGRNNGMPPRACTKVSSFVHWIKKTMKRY
T4 sequence (P08246 30-267): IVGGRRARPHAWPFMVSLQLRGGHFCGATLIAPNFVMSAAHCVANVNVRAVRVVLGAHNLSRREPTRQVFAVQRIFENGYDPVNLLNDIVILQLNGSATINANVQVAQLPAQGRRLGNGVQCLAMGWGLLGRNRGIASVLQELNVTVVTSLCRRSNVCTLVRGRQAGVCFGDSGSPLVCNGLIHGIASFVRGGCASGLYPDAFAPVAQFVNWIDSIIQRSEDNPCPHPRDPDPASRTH
HuR (human antigen R), sequence (Q15717 whole entry): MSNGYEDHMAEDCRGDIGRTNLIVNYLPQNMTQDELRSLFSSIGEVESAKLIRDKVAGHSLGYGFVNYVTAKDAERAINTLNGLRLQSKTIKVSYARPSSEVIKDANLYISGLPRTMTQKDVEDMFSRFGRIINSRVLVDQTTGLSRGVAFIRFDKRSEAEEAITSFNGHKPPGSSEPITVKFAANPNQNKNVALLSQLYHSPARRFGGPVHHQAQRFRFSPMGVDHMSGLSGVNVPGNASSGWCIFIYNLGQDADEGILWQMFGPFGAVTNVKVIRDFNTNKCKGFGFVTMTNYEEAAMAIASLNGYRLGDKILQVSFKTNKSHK
Histone H1, sequence (P07305 whole entry): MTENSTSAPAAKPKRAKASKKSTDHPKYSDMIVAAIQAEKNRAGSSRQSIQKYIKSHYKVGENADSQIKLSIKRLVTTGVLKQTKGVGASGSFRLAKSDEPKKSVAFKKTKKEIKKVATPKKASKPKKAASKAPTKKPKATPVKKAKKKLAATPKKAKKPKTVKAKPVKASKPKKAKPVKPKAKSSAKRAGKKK
Pancreatic elastase (PE), sequence (P00772 27-266): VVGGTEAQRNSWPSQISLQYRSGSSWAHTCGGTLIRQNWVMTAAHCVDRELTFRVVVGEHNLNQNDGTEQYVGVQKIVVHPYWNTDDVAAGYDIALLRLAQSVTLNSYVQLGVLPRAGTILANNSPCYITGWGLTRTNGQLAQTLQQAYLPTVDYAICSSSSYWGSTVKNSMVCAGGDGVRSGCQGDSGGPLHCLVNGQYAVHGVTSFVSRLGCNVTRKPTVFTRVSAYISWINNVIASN

UCUGUGAGUUGAACGCACACAUCACAAAGGA (ssRNA) [BB94 RNA]: the Kd in data set [1] is 1600 nM; in data set [2], 480 nM; in [3], 4800 nM.

As to TTTTTTTTTTTTTTTTTTTTTTTTT (ssDNA) [Oligo(dT)25 beads], the binding result in [4] is “binds”; in [5] it was “binds”; in data set [6], “binds”; in data set [7], “no binding”; in [8], “binds”.

For the molecule TCTGTGAGTTGAACGCACACATCACAAAGGAG (ssDNA) [BB94 ssDNA], the dissociation constant (Kd) in data set [1] came to 122 nM; in data set [2], 35 nM; in data set [9], 22 nM; in data set [10], 10 nM; in data set [11], 272 nM.

B1: BB94 dsDNA (dsDNA)
DNA 1: TCTGTGAGTTGAACGCACACATCACAAAGGAG
DNA 2: CTCCTTTGTGATGTGTGCGTTCAACTCACAGA
As to B1, the Kd in [1] was found to be 120 nM; in data set [2] it was 161 nM; in data set [9] it was 35 nM; in data set [10] it was 9 nM; in data set [11] it was 607 nM.

With UUUUUUUUUUUUUUUUUUUUUUUUUUUUUU (ssRNA) [rU(30)], the dissociation constant Kd is 232 nM in data set [1], 159 nM in data set [2] and 121 nM in data set [3].

As for TTTTTTTTTTTTTTTTTTTTTTTTTTTTTT (ssDNA) [dT(30)], the dissociation constant (Kd) in data set [1] is 48 nM; in data set [2] it was 45 nM.

Turning to CCCAAGCUUAUUUAUUUAUUUAUUGCAGGUC (ssRNA) [AU RNA], the Kd in [1] came out at 401 nM; in data set [2], 651 nM; in data set [9] it was 165 nM; in data set [3], 492 nM; in data set [11] it was 602 nM.

The term Kd denotes the constant that tells how readily two partners part at equilibrium. Read a high Kd as weaker binding.
